According to patent US20210355235A1, “Compositions and Methods For Treating Cancer with Anti-Renalase antibodies and Anti-PD1 antibodies” (YALE UNIVERSITY, priority 2017, published 2021):
Entries after “also recorded” stand apart in the source; their conditions may differ.

Assays:
A375.S2 xenograft tumors = format: in vivo
Procedure: Briefly, tumor tissues were formalin-fixed, paraffin-embedded and cut into 5-m sections on glass slides. The slides were de-paraffinized and hydrated, followed by antigen retrieval in a pressure cooker containing 10 mM sodium citrate, pH6 buffer. The sections were blocked in 3% hydrogen peroxide for 30 min and 2.5% normal horse serum in PBS/0.1% Tween20 for 1 h followed by incubation with primary antibody and isotype control IgG overnight at 4° C. The following antibodies were used in this study: m28-RNLS at 500 ng/ml; goat polyclonal anti-RNLS at 250 ng/ml (Abcam, ab31291); rabbit monoclonal anti-CD68 (BDBioscience, 1:100); rabbit monoclonal anti-CD163 (AbD Serotec, 1:100); rabbit monoclonal anti-CD86 (Abcam, 1:100); rabbit monoclonal anti-Ki67 (Vector Lab, VP-RM04, 1:100); rabbit monoclonal anti-p21, […], and total Stat3 (Cell Signaling Technologies, #2947, 1:100, #9145, 1:400, and #4904, 1:400, respectively). ImmPRESS peroxidase-anti-rabbit IgG (Vector Laboratories, Burlingame, Calif., USA) was used to detect primary antibodies. […] Slides were observed and photographed using an Olympus BX41 microscope and camera (Olympus America Inc, Center Valley, Pa., USA).
Female athymic, 18-20 g nude mice (nu/nu) were obtained from Charles River (Willimantic, Conn.) and housed in microisolator cages, with autoclaved bedding in a specific pathogen-free facility, with a 12-h light/dark cycle.
Xenograft tumors were established by subcutaneous injection of A375.S2 cells (2×10^6 in 100 μl of PBS, pH 7.6). When the tumors reached a volume of 50-100 mm^3, the mice were divided into a control group (n=14 treated with rabbit IgG, 40 μg by intraperitoneal injection (IP) once weekly, and 40 ug subcutaneously (SQ) around the tumor site every 3 days), and an experimental group (n=14) that received m28-RNLS (40 μg IP, once weekly, and 40 ug SQ, every 3 days). Tumor size was measured with digital calipers and volume was calculated according to the formula (length×width^2)×π/2.
At the end of the study, the mice were sacrificed, the tumors were excised and immediately snap-frozen in liquid nitrogen and stored at −80° C. Apoptosis was examined using the TUNEL assay (Roche in situ Apoptosis Detection System), according to the manufacturer's instructions. Sections were examined by light microscopy and the apoptosis index was determined by counting ≥1000 cells in 10 randomly selected high-power fields (×200 magnification).

A375.S2 melanoma cells = assay: cell viability, WST-1 assay; format: cell-based, human; details: WST-1, 72 hrs
Procedure: FIG. 19, comprising FIGS. 19A through 19D, is a series of images and charts showing that inhibition of RNLS signaling is cytotoxic to melanoma cells in vitro. […] FIG. 19B comprises two charts depicting relative cell viability: Left panel: Cells were treated with indicated antibodies for 72 hrs and cell viability was determined using WST-1; m28-RNLS (also known as 1D-28-4), m37-RNLS (also known as 1D-37-10): monoclonal antibodies raised against RNLS peptide RP220; Right panel: A375.S2 cells treated with increasing doses of m28-RNLS for 72 hrs and cell viability determined with a WST-1 assay; n=6, * indicates p<0.05 and ** indicates p<0.005. FIG. 19C comprises representative photos of A375.S2, SkMel28, and SkMel5 after 72 hrs incubation with either control rabbit IgG or m28-RNLS. FIG. 19D is a chart depicting relative cell viability, comprising amino acid (AA) sequence of RNLS peptide antagonist (RP220A).
Total cell number and percentage of live cells were assessed by trypan blue exclusion, and cells were counted using a BioRad TC10 automated cell counter. For additional studies, cell viability was determined using WST-1 reagent (Roche Diagnostics, Indianapolis, Ind., USA) according to the manufacturers' instruction. Absorbances were read using a microplate reader (Power Waves XS, BioTek Instruments, Winooski, Vt., USA).

Panc1 cells = assay: FACS analysis of apoptosis and cell cycle; format: cell-based, human; details: 30 μg/ml
Procedure: For cell cycle analysis, cultured cells were dissociated using 10 mM EDTA, fixed with ice-cold 70% ethanol, digested with RNAse A, and stained with propidium iodide. Propidium staining was detected using a BD FACSCalibur flow cytometer (BD Biosciences, San Jose, Calif., USA), and analyzed using CellQuest software.
Apoptosis was detected and quantified as previously done (Guo et al., 2012 Cancer Science. 103(8):1474-80). In brief, cells were stained with FITC-labeled Annexin-V and propidium iodide according to the manufacturer's instructions (Bender MedSystems, Burlingame, Calif., USA). At least 20,000 events were collected on a BD FACSCalibur flow cytometer (BD Biosciences, San Jose, Calif., USA) and analyzed using CellQuest software.

[1] = test system: renalase-1 and renalase-2; assay: renalase isoform specificity of the antibodies (ELISA / hybridoma screening); format: binding, human; details: renalase-1 vs renalase-2
Procedure: Peptides were used as immunogens. The peptides generated ranged from 9 to 21 amino acids and corresponded to regions of the renalase-1 and renalase-2 proteins. […] Each peptide was conjugated to the adjuvant KLH via the cysteine and used to immunize 6 rabbits. Antiserum collected from each animal was screened for anti-renalase antibody titer by ELISA assay using both the relevant peptide (BSA-conjugate) or full length renalase-1 or 2. The antisera were also tested for their ability to detect endogenous renalase in tissue lysates by western blot. Using these screening criteria the animals producing antibodies with the preferred characteristics were selected. In some examples and for some peptides, several animals produced antibodies with the required specificity. […] Polyclonal antibodies raised against all of the peptides were generated by purification of total IgG from terminal bleeds by protein G chromatography followed by further purification on peptide affinity chromatography. Further and using standard procedures, lymphocytes from the spleens of selected animals were fused to myeloma cells for hybridoma generation. The hybridoma supernatants were screened for binding to both the peptides against which they were raised and secondarily screened against whole renalase protein. Selected hybridomas were sub-cloned and expanded for antibody purification. The monoclonal antibodies were purified from conditioned hybridoma culture supernatant by protein A affinity chromatography.

[2] = immunofluorescence / western blot

B1: m28-RNLS: rabbit anti-renalase monoclonal raised against RNLS peptide RP-220; heavy chain SEQ ID NO:9, light chain SEQ ID NO:10 (antibody)
heavy: METGLRWLLLVAVLKGVQCQSVEESGGRLVTPGTPLTLTCTVSGFSLSSFAVGWVRQAPGKGLEYIGIISSVGITRYASWAAGRFTISKTSTTVDLKITSPTTEDTATYFCARYGYSGDVNRLDLWGQGTLVTVSSGQPKAPSVFPLAPCCGDTPSSTVTLGCLVKGYLPEPVTVTWNSGTLTNGVRTFPSVRQSSGLYSLSSVVSVTSSSQPVTCNVAHPATNTKVDKTVAPSTCSKPTCPPPELLGGPSVFIFPPKPKDTLMISRTPEVTCVVVDVSQDDPEVQFTWYINNEQVRTARPPLREQQFNSTIRVVSTLPIAHQDWLRGKEFKCKVHNKALPAPIEKTISKARGQPLEPKVYTMGPPREELSSRSVSLTCMINGFYPSDISVEWEKNGKAEDNYKTTPAVLDSDGSYFLYSKLSVPTSEWQRGDVFTCSVMHEALHNHYTQKSISRSPGK
light: MDTRAPTQLLGLLLLWLPGATFAQVLTQTASPVSAAVGGTVTINCQASQSVYDNNNLAWYQQKPGQPPKQLIYGASTLASGVSSRFKGSGSGTQFTLTISGVQCDDAATYYCLGEFSCSSADCFAFGGGTEVVVKGDPVAPTVLIFPPSADLVATGTVTIVCVANKYFPDVTVTWEVDGTTQTTGIENSKTPQNSADCTYNLSSTLTLTSTQYNSHKEYTCKVTQGTTSVVQSFNRGDC
modifications: 1D-28-4 full length heavy chain amino acid; 1D-28-4 full length light chain amino acid
- number of CD163+ TAMs (A375.S2 xenograft tumors; immunofluorescence): considerable decrease; also recorded: decreases
- RNLS protein expression in tumors (A375.S2 xenograft tumors; [2]): dramatic reduction; also recorded: decreases; also recorded: marked reduction
- total and phosphorylated STAT3 (p-Y705-STAT3) in tumors (A375.S2 xenograft tumors; [2]): significantly decreased; also recorded: marked reduction
- ratio of CD86+ to CD163+ TAMs (A375.S2 xenograft tumors; mouse, in vivo): increases
- TUNEL positive cells (apoptosis) (A375.S2 xenograft tumors; n=14, control 4.3±0.2): 13.3±0.6 positive cells
- p21 positive cells (cell cycle regulator, IHC) (A375.S2 xenograft tumors; n=14, control 12.2±1.0): 24.2±2.4 positive cells
- Ki67 positive cells (cellular proliferation marker, IHC) (A375.S2 xenograft tumors; n=14, control 35.1±2.3): 13.4±3.0 positive cells/high power field
- human (tumor) RNLS expression in tumor mass (A375.S2 xenograft tumors; qPCR, human specific primers): without affecting
- mouse (endogenous) RNLS expression in tumor mass (A375.S2 xenograft tumors; qPCR, mouse specific primers): significant reduction
- toxicity (overall animal health and activity) (A375.S2 xenograft tumors; throughout the study): did not appear to be toxic
- tumor volume (A375.S2 xenograft tumors; vs control rabbit IgG, 40 μg IP weekly and 40 ug SQ every 3 days): decreased tumor volume at all points tested
- cell viability (A375.S2 melanoma cells): increasing levels of cytotoxicity in correlation with increasing treatment concentrations
- cell cycle (FACS) (Panc1 cells): pre-G2 cell cycle arrest
- apoptosis (FACS) (Panc1 cells; 4 days): caused apoptosis
- renalase-type specificity [1]: recognize renalase-1 and renalase-2
